We go through two molecules from patent US20200392227A1 (LYVGEN BIOPHARMA, published 2020).

The Kd is the equilibrium constant for the complex coming apart. High values mean lower affinity, low ones higher affinity. The koff is the rate constant with which the complex falls apart. A higher koff goes with fast dissociation. A word on the kon: it is the rate constant with which the complex forms. Low readings indicate slow association, high ones fast association.

Test [1] deals with T1, human FcRI protein (MednaBio, E1031) (human, UniProt P12314 16-288, limits assumed).
T1 construct: Bought; loaded on anti-penta-HIS biosensors; also called FcγRI
Briefly: BLI. The method, boiled down: (§1)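 Binding was measured by biolayer interferometry on an Octet Red96 System, with commercial human Fc receptor proteins loaded at 20 μg/mL onto anti-penta-HIS biosensors. Sensors were dipped into an 8-point 1:3 dilution series of test IgG starting at 300 nM in PBS with 0.1% BSA and 0.02% Tween-20. Fcγ receptor assays ran at pH 7.2 and FcRn assays at pH 6. Kd, kon and koff came from global fitting to a 1:1 binding model.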
A general note: Biolayer interferometry detects binding as a change in optical thickness at a sensor tip.

In test [2] the target is T2, human FcRIIA protein (MednaBio, E1033) (human, UniProt P12318 34-218, limits assumed).
T2 construct: Bought; also called FcγRIIA
T2 sequence (looked up): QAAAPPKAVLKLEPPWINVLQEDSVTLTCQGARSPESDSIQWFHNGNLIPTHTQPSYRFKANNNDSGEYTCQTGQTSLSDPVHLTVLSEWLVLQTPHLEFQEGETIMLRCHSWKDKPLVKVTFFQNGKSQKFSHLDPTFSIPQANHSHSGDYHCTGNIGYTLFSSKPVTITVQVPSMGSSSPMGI
Briefly: BLI. The gist of the method: as §1

The target in test [3] is T3, human FcRIIB/C protein (MednaBio, E1034) (human, UniProt P31994 43-217, limits assumed).
T3 construct: Bought as FcRIIB/C; also called FcγRIIB; CD32B
T3 sequence (looked up): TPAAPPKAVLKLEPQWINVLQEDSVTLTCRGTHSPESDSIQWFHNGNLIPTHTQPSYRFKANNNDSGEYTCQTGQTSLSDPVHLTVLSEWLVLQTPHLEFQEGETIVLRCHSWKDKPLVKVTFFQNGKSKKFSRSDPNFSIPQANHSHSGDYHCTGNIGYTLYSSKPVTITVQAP
Put plainly: BLI. The gist of the method: as §1

For test [4], the target named is T4, human FcRIIIA-F158 protein (MednaBio, E1036) (human, UniProt P08637 17-208).
T4 construct: Bought; also called FcγRIIIA(F)
Briefly: BLI. The gist of the method: as §1

The target of test [5] is T5, human FcRIIIA-V158 protein (MednaBio, E1035) (human, UniProt P08637 17-208).
T5 construct: Bought; also called FcγRIIIA(V); FcgRIIIA(V)
Briefly: BLI. The gist of the method: as §1

The target of test [6] is T6, human FcRIIIB protein (MednaBio, E1037) (human, UniProt O75015 17-200).
T6 construct: Bought; also called FcγRIIIB; FcgRIIIB
Briefly: BLI. The gist of the method:
as §1

Test [7] deals with T7, human FcRn protein (MednaBio, E1032) (human, UniProt P55899 24-297; P61769 21-119).
T7 construct: Bought; assays at pH 6
Put plainly: BLI. The gist of the method:
as §1

In test [8] the target is T8, human FcγRIIA(R131) expressed on CHO cells (human, UniProt P12318 34-317).
T8 construct: whole, on cells
T8 sequence (looked up): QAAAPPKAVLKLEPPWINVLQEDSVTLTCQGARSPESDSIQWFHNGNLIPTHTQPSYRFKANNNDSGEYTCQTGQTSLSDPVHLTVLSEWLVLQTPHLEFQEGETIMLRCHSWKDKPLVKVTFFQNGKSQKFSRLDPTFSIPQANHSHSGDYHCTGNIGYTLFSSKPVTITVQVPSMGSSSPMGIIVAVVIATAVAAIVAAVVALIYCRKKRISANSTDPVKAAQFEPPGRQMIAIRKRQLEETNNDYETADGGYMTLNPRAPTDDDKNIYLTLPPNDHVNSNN
Briefly: FACS, CHO cells expressing FcγRIIA(R131). The method, then:
FIGS. 1A-1W are charts showing binding activity of various IgG variants as indicated to different types of Fcγ receptors expressed on CHO-K1 cells at the various concentrations as indicated. The concentrations of each IgG variant, from left to right, are 0 μg/ml, 0.3 μg/ml, 1 μg/ml, 3 μg/ml, and 10 μg/ml in FIGS. 1A-1C, 1E-J, 1L-1M, 1P-1R, and 1T-1V. For FIGS. 1D, 1K, 10, 1S, and 1w the bars, from left to right, correspond to the following concentrations of IgG variant: 0.3 μg/ml, 1 μg/ml, 3 μg/ml, and 10 μg/ml.
For FACS analysis of the IgG mutants' binding to different FcγRs, FcγR overexpressing CHO cells were harvested using trypsin-EDTA and were suspended in cold staining buffer (3% BSA in PBS). Test IgG mutants, which were diluted in staining buffer, were added into the cells. The mixture was incubated 4° C. for 2 hours, and then washed twice with cold staining buffer and re-suspended in PE-labeled anti-human IgG followed by incubation at 4° C. for 2 hours. The mixture was washed twice with staining buffer and re-suspended in 2% PFA in PBS for FACS.

In test [9] the target is T1, human FcRI protein (MednaBio, E1031). Briefly: BLI. The method, boiled down:
as §1
The source holds these as a separate data set.

Test [10] has as its target T2, human FcRIIA protein (MednaBio, E1033). Put plainly: BLI. The method, boiled down:
as §1
This is another data set of the same source.

In test [11] the target is T3, human FcRIIB/C protein (MednaBio, E1034). Briefly: BLI. The gist of the method:
as §1
The source holds these as a separate data set.

In test [12] the target is T4, human FcRIIIA-F158 protein (MednaBio, …). Put plainly: BLI. The method, boiled down: as §1
This is another data set of the same source.

Test [13] concerns the target T5, human FcRIIIA-V158 protein (MednaBio, …). Briefly: BLI. The gist of the method: as §1
The source holds these as a separate data set.

The target of test [14] is T6, human FcRIIIB protein (MednaBio, E1037). Put plainly: BLI. The method, boiled down:
as §1
This is another data set of the same source.

For test [15], the target named is T7, human FcRn protein (MednaBio, E1032). Briefly: BLI. The gist of the method:
as §1
The source holds these as a separate data set.

Where two headings read alike, the source gives them in different places.

T1 sequence (P12314 16-288 limits assumed): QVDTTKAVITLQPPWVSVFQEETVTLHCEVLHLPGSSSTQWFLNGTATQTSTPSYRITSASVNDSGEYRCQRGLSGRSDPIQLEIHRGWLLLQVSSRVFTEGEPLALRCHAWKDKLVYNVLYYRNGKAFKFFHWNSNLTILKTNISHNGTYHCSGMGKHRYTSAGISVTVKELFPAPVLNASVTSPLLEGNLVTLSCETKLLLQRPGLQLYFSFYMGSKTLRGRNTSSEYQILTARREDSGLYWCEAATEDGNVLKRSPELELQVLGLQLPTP
T7 sequence (P55899 24-297 limits assumed, form in doubt, chain 1 of 2): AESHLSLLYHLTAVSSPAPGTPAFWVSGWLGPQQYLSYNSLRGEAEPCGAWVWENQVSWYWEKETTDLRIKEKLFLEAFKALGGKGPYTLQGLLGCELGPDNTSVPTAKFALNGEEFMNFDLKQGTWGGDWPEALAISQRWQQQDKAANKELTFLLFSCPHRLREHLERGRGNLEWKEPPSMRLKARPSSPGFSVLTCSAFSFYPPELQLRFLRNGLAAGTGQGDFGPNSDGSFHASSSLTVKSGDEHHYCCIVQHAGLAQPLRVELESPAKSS
T7 sequence (P61769 21-119 limits assumed, form in doubt, chain 2 of 2): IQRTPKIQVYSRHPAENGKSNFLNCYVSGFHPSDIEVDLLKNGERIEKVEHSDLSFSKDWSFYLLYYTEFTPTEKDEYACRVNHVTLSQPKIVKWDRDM
T5 sequence (P08637 17-208 F176V): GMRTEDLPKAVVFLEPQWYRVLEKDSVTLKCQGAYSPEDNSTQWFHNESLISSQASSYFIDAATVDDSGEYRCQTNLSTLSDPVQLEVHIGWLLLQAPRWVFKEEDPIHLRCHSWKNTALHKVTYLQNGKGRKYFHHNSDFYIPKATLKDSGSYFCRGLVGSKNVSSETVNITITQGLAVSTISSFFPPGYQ
T4 sequence (P08637 17-208 limits assumed): as the sequence (P08637 17-208 F176V) above, with V160F counted along it
T6 sequence (O75015 17-200 limits assumed): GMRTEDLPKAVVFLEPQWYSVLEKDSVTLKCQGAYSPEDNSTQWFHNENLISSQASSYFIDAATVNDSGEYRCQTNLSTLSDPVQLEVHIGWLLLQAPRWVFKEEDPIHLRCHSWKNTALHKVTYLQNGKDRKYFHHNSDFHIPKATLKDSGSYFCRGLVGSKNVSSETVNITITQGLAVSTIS

B1: anti-CD137 IgG1 with Fc variant G1mAA (antibody)
heavy: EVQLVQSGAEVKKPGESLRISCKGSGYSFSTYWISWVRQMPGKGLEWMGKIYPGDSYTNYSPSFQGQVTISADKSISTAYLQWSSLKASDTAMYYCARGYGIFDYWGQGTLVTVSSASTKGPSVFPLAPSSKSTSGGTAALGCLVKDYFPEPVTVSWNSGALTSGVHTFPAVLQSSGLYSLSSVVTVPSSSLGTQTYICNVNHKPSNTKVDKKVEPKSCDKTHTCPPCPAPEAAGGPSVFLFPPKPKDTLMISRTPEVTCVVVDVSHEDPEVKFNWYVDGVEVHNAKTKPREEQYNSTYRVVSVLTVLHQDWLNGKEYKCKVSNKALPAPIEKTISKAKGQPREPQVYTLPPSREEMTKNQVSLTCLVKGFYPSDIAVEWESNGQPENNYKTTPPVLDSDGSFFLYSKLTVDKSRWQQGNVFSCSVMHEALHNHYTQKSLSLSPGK
light: SYELTQPPSVSVSPGQTASITCSGDNIGDQYAHWYQQKPGQSPVLVIYQDKNRPSGIPERFSGSNSGNTATLTISGTQAMDEADYYCATYTGFGSLAVFGGGTKLTVLGQPKAAPSVTLFPPSSEELQANKATLVCLISDFYPGAVTVAWKADSSPVKAGVETTTPSKQSNNKYAASSYLSLTPEQWKSHRSYSCQVTHEGSTVEKTVAPTECS
notes: copies: 2 + 2
Turning to B1, the Kd in [1] amounted to 235 nM; in [2], 800 nM; in test [3] it was 656 nM; in test [4], 1500 nM; in test [5] it was 456 nM; in test [6], 556 nM. The Kd in test [7] is 18.8 nM. Also, the koff worked out at 0.0337 s⁻¹ in [1]; 0.247 s⁻¹ in test [2]; 0.156 s⁻¹ in test [3]; 0.175 s⁻¹ in test [4]; 0.042 s⁻¹ in test [5]; 0.144 s⁻¹ in [6]. The off-rate (koff) in test [7] amounted to 0.015 s⁻¹. The kon in test [1] came out at 144000 M⁻¹ s⁻¹; in test [2], 310000 M⁻¹ s⁻¹; in test [3] it was 238000 M⁻¹ s⁻¹; in test [4] it was 116000 M⁻¹ s⁻¹; in test [5], 92300 M⁻¹ s⁻¹; in test [6] it was 258000 M⁻¹ s⁻¹. Moreover, the on-rate constant (kon) in test [7] is 803000 M⁻¹ s⁻¹. The binding result in test [8] is reported as “no binding (tested: 10 ug/ml)”.

B2: anti-CD137 IgG4 with Fc variant G4m30 (antibody)
heavy: EVQLVQSGAEVKKPGESLRISCKGSGYSFSTYWISWVRQMPGKGLEWMGKIYPGDSYTNYSPSFQGQVTISADKSISTAYLQWSSLKASDTAMYYCARGYGIFDYWGQGTLVTVSSASTKGPSVFPLAPCSRSTSESTAALGCLVKDYFPEPVTVSWNSGALTSGVHTFPAVLQSSGLYSLSSVVTVPSSSLGTKTYTCNVDHKPSNTKVDKRVESKYGPPCPPCPAPEFLPSVFLFPPKPKDTLMISRTPEVTCVVVDVSQEDPEVQFNWYVDGVEVHNAKTKPREEQFNSTYRVVSVLTVLHQDWLNGKEYKCKVSNKGLPSSIEKTISKAKGQPREPQVYTLPPSQEEMTKNQVSLTCLVKGFYPSDIAVEWESNGQPENNYKTTPPVLDSDGSFFLYSRLTVDKSRWQEGNVFSCSVMHEALHNHYTQKSLSLSLGK
light: SYELTQPPSVSVSPGQTASITCSGDNIGDQYAHWYQQKPGQSPVLVIYQDKNRPSGIPERFSGSNSGNTATLTISGTQAMDEADYYCATYTGFGSLAVFGGGTKLTVLGQPKAAPSVTLFPPSSEELQANKATLVCLISDFYPGAVTVAWKADSSPVKAGVETTTPSKQSNNKYAASSYLSLTPEQWKSHRSYSCQVTHEGSTVEKTVAPTECS
notes: also called G430; copies: 2 + 2
B2: the Kd is 528 nM in [9]; 977 nM in test [10]; 2220 nM in [11]; 284 nM in test [12]; 217 nM in test [13]; 216 nM in [14]. The same molecule yielded a Kd in test [15] of 7.61 nM. Further, the koff worked out at 0.193 s⁻¹ in [9]; 0.234 s⁻¹ in test [10]; 0.118 s⁻¹ in test [11]; 0.303 s⁻¹ in test [12]; 0.309 s⁻¹ in test [13]; 0.297 s⁻¹ in [14]. Also, the koff in test [15] stood at 0.0133 s⁻¹. The kon came out at 365000 M⁻¹ s⁻¹ in [9]; 240000 M⁻¹ s⁻¹ in test [10]; 53600 M⁻¹ s⁻¹ in test [11]; 1.06e+06 M⁻¹ s⁻¹ in test [12]; 1.42e+06 M⁻¹ s⁻¹ in [13]; 1.37e+06 M⁻¹ s⁻¹ in [14]. In addition, the on-rate (kon) in test [15] was 1.75e+06 M⁻¹ s⁻¹. Also, the binding result in [8] is on record as “no binding (tested: 10 ug/ml)”.
